The text below walks through data of patent US20240254229A1 (Molecular Partners, published 2024).

For assay [1], the target named is T1, Molm-13 N1 tumor cells (carrying CD123, CD33 and CD70) (human, UniProt P20138 18-364; P26951 19-378; P32970 1-193).
T1 construct: whole, on cells; Not a complex: three separate antigens on one cell; also called Molm-13 N1 cells
Put plainly: flow cytometry on Molm-13 N1 cells, 20 uM HSA. As for the experimental part: The determination of binding of several multispecific proteins to tumor cells was performed by Fluorescence Activated Cell Sorting (FACS) flow cytometry. Therefore, tumor cells (Molm-13 N1), were seeded at 100′000 cells per well in a 96 well plate. DARPin® protein #56, DARPin® protein #57, DARPin® protein #58, DARPin® protein #59, DARPin® protein #60, DARPin® protein #61 and DARPin® protein #62 were titrated down starting at 100 nM in 1:5 dilution ratio. Tumor cells were resuspended with diluted DARPin® proteins and incubated 60 minutes at 4° C. The assay was performed in PBS including 2% fetal bovine serum and human serum albumin 20 uM (HSA). After washing twice with Phosphate Buffer saline (PBS), DARPin® protein specific tumor cell binding was detected by adding unlabelled primary […] (anti-rabbit 1-1-1 antibody, CePower) at 2 ug/ml. An incubation step of at least 30 minutes at 4° C. followed. Afterwards, cells were washed with PBS and a secondary anti-rabbit antibody labelled with Alexa Fluor 647 antibody (ThermoFisher) at 2 ug/ml was added. The same incubation conditions applied. Finally, the cells were washed twice and resuspended in Cytofix fixation buffer (BD Biosciences) for 15 min at room temperature (RT). Median fluorescence intensities (MFI) of Alexa Fluor 647 DARPin® labelled cells were measured by Attune NxT (Thermo Fisher) using FlowJo software for analyses and GraphPad Prism 8 for data plotting.
A general note: Flow cytometry measures light scatter and fluorescence of single cells or particles in a stream.

The target in assay [2] is T2, biotinylated extracellular domain of human CD33 (SEQ ID NO: 87), Fc and Avi tagged (human, UniProt P20138 18-259, biotinylated with BirA-GST (Avi tag)).
T2 construct: also called hCD33; human target hCD33
T2 sequence (P20138 18-259 R69G): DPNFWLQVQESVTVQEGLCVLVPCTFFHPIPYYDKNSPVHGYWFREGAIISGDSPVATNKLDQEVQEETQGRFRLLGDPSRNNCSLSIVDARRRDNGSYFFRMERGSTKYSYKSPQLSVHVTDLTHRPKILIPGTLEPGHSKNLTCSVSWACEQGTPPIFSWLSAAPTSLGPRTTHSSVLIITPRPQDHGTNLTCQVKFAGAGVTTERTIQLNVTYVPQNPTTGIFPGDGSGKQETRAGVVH
Put plainly: SPR (ProteOn XPR36), target on GLC chip, DARPin as analyte. The source says:
(§1) For that, DARPin® protein #27, DARPin® protein #29, DARPin® protein #47 and DARPin® protein #48 and DARPin® protein #49, DARPin® protein #50, DARPin® protein #51, DARPin® protein #52, DARPin® protein #31, DARPin® protein #53, DARPin® protein #54, DARPin® protein #55, DARPin® protein #34, DARPin® protein #33, DARPin® protein #39 and DARPin® protein #36 were subcloned and expressed as described above into derivatives of the pQE30 (Qiagen) expression vector, containing an N-terminal His-tag, CD33, CD123 and/or CD70 binding ankyrin repeat domains, followed by a CD3 specific ankyrin repeat domain and for some constructs by a human serum albumin specific ankyrin repeat domain.
(§2) Briefly, biotinylated human CD70, CD123 and CD33 was diluted in PBST (PBS, pH 7.4 containing 0.005% Tween 20®) and coated on a GLC chip (BioRad) to a level of around 200, 460 and 450 resonance units (RU) respectively. HSA in NaOAc pH 5.0 was directly immobilized on the GLC chip to a level of 800 RU. Bio.CD70, bio. CD33 and bio. CD123 required to have Neutravidin coated first to a level of 6000 RU before the biotinylated targets could be applied. The interaction of the selected ankyrin repeat proteins and human CD70, CD123 and CD33 was then measured by injecting 300 μl running buffer (PBS, pH 7.4 containing 0.005% Tween 20®) containing serial dilutions of ankyrin repeat proteins covering a concentration range between 100 nM and 2.6 nM (100, 40, 16, 6.4 and 2.6 nM respectively) for multi-trace SPR measurements, with an association of 120 s and dissociation of 1200 s using a constant flow of 100 μl/min. The regeneration was performed using 30 μl of 4 mM Glycine pH 2. The signals (i.e. resonance unit (RU) values) of the interspots and a reference injection (i.e. injection of running buffer only) were subtracted from the RU traces obtained after injection of ankyrin repeat protein (double-referencing).

The target of assay [3] is T3, biotinylated extracellular domain of human CD123 (SEQ ID NO: 88), Fc and Avi tagged (human, UniProt P26951 19-303, biotinylated with BirA-GST (Avi tag)).
T3 construct: also called hCD123
T3 sequence: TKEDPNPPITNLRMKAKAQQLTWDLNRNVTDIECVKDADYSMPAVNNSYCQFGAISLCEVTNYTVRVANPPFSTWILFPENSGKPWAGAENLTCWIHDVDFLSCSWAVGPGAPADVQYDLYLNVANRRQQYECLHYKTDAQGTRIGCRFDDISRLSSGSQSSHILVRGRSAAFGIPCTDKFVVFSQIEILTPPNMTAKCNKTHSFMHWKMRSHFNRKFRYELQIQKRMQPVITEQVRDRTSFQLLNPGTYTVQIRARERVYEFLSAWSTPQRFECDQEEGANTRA
Described as above.
From the text: as §1, §2

In assay [4] the target is T4, extracellular domain of human CD70 (SEQ ID NO: 89), hCD70-Fc-trimer, ACRO Biosystems (human, UniProt P32970 52-193, chemically biotinylated where the biotinylated form was used).
T4 construct: also called human CD70-Fc-trimer; Bio.CD70
T4 sequence: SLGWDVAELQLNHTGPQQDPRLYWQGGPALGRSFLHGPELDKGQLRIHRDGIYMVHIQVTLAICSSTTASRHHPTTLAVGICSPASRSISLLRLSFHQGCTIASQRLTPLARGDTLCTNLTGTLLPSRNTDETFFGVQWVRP
Described as above.
From the text: as §1, §2

In another assay the target is T5, human serum albumin (human, UniProt P02768 25-609).
T5 construct: also called HSA; SA
T5 sequence (P02768 25-609 limits assumed): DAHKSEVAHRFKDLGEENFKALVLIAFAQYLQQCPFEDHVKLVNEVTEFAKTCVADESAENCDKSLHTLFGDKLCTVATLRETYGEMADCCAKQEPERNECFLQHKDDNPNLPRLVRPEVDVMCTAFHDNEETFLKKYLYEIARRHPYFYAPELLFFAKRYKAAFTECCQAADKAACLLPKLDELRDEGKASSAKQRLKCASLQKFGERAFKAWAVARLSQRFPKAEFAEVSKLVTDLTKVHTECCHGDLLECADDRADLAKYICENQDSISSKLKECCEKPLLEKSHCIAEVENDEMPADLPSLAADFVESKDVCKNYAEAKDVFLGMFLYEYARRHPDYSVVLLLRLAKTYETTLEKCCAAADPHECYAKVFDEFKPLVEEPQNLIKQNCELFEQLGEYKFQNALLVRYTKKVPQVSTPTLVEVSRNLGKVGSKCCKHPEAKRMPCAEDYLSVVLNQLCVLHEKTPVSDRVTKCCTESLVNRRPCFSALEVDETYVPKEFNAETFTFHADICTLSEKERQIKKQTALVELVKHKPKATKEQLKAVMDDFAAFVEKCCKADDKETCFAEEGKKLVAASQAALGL
The assay is described as above.
From the text: as §1, §2

T1 sequence (P20138 18-364, one chain of several): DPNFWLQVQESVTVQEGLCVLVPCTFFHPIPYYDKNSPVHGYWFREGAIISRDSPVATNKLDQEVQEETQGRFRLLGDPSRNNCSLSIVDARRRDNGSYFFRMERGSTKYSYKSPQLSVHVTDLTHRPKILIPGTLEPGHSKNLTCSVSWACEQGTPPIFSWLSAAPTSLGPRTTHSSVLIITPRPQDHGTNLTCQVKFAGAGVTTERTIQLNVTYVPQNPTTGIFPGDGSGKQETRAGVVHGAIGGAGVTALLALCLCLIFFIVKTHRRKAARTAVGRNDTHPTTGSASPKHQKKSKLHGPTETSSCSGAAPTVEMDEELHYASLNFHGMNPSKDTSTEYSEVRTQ

B1: DARPin® protein #58 (designed binder)
chain: DLGKKLLEAARAGQDDEVRELLKAGADVNAKDYFSHTPLHLAARNGHLKIVEVLLKAGADVNAKDFAGKTPLHLAAADGHLEIVEVLLKAGADVNAQDIFGKTPADIAADAGHEDIAEVLQKAAGSPTPTPTTPTPTPTTPTPTPTGSDLGKKLLEAARAGQDDEVRELLKAGADVNAKDYFSHTPLHLAARNGHLKIVEVLLKAGADVNAKDFAGKTPLHLAAADGHLEIVEVLLKAGADVNAQDIFGKTPADIAADAGHEDIAEVLQKAAGSPTPTPTTPTPTPTTPTPTPTGSDLGIKLLTAAYDGQLDEVRILLKAGADVNAKDLRGQTPLHYAAGLGHLEIVEVLLKAGADVNAKDLHGWTPLHLAAWSGHLEIVEVLLKAGADVNAQDVEGVTPADLAAVQGHQDIAEVLQKAAGSPTPTPTTPTPTPTTPTPTPTGSDLGWKLLDAAEIGQLDEVRILLKAGADVNAKDKQGITPLHIAAAHGHLEIVEVLLKAGADVNAKDEIGRTPLHLAAFKGHLEIVEVLLKAGADVNAQDIIGETPADLAAVRGHQDIAEVLQKAAGSPTPTPTTPTPTPTTPTPTPTGSDLGVKLLLAAERGQLDEVRILLKAGADVNAKDIAEGYTPLHIAAYQGHLEIVEVLLKAGADVNAKDRYGKTPLHLAAIGGHLEIVEVLLKAGADVNAQDNKGSTPADLAADYGHQDIAEVLQKAAGSPTGSDLGQKLLEAAWAGQDDEVRELLKAGADVNAKNSRGWTPLHTAAQTGHLEIFEVLLKAGADVNAKNDKRVTPLHLAAALGHLEIVEVLLKAGADVNARDSWGTTPADLAAKYGHQDIAEVLQKAA
notes: HSA-HSA-CD70-CD123-CD33-CD3
By EC50 is commonly meant the concentration at which the effect is half-maximal. The low end stands for greater potency, the high end for weaker potency. Molecule B1 returned an EC50 in assay [1] of 0.17 nM.

B2: DARPin® protein #59 (designed binder)
chain: DLGKKLLEAARAGQDDEVRELLKAGADVNAKDYFSHTPLHLAARNGHLKIVEVLLKAGADVNAKDFAGKTPLHLAAADGHLEIVEVLLKAGADVNAQDIFGKTPADIAADAGHEDIAEVLQKAAGSPTPTPTTPTPTPTTPTPTPTGSDLGKKLLEAARAGQDDEVRELLKAGADVNAKDYFSHTPLHLAARNGHLKIVEVLLKAGADVNAKDFAGKTPLHLAAADGHLEIVEVLLKAGADVNAQDIFGKTPADIAADAGHEDIAEVLQKAAGSPTPTPTTPTPTPTTPTPTPTGSDLGIKLLTAAYDGQLDEVRILLKAGADVNAKDLRGQTPLHYAAGLGHLEIVEVLLKAGADVNAKDLHGWTPLHLAAWSGHLEIVEVLLKAGADVNAQDVEGVTPADLAAVQGHQDIAEVLQKAAGSPTPTPTTPTPTPTTPTPTPTGSDLGKKLLEAALEGQLDEVRELLKAGADVNAKDQEGYTPLHLAAALGHLEIVEVLLKAGADVNAKDQIGRTPLHLAAYKGHLEIVEVLLKAGADVNAQDIIGQTPADLAAQRGHQDIAEVLQKAAGSPTPTPTTPTPTPTTPTPTPTGSDLGVKLLLAAERGQLDEVRILLKAGADVNAKDIAEGYTPLHIAAYQGHLEIVEVLLKAGADVNAKDRYGKTPLHLAAIGGHLEIVEVLLKAGADVNAQDNKGSTPADLAADYGHQDIAEVLQKAAGSPTGSDLGQKLLEAAWAGQDDEVRELLKAGADVNAKNSRGWTPLHTAAQTGHLEIFEVLLKAGADVNAKNDKRVTPLHLAAALGHLEIVEVLLKAGADVNARDSWGTTPADLAAKYGHQDIAEVLQKAA
notes: HSA-HSA-CD70-CD123-CD33-CD3
Take B2: in assay [1], the midpoint of the response, the EC50, lay at 0.19 nM.

B3: DARPin® protein #55 (designed binder)
chain: MRGSHHHHHHDLGYKLLQAAYDGQLDEVRILLKAGADVNAKDSRGQTPLHYAASIGHLEIVEVLLKAGADVNAKDDHGWTPLHLAAWSGHLEIVEVLLKAGADVNAQDQEGTTPADLAAVQGHQDIAEVLQKAAGSPTPTPTTPTPTPTTPTPTPTGSDLGKKLLEAALEGQLDEVRELLKAGADVNAKDQEGYTPLHLAAALGHLEIVEVLLKAGADVNAKDSIGRTPLHLAAYKGHLEIVEVLLKAGADVNAQDLLGETPADLAAEQGHQDIAEVLQKAAGSPTPTPTTPTPTPTTPTPTPTGSDLGVKLLRAAVHGQLDEVRILLKAGADVNAKDTDGETPLHYAAQFGHLEIVEVLLKAGADVNAKDAYGATPLHWAAWHGHLEIVEVLLKAGADVNAQDVSGATPADLAAKVGHQDIAEVLQKAAGSPTPTPTTPTPTPTTPTPTPTGSDLGQKLLEAAWAGQDDEVRELLKAGADVNAKNSRGWTPLHTAAQTGHLEIFEVLLKAGADVNAKDDKGVTPLHLAAALGHLEIVEVLLKAGADVNAQDSWGTTPADLAAKYGHEDIAEVLQKAAGSPTPTPTTPTPTPTTPTPTPTGSDLGKKLLEAARAGQDDEVRELLKAGADVNAKDYFSHTPLHLAARNGHLKIVEVLLKAGADVNAKDFAGKTPLHLAAADGHLEIVEVLLKAGADVNAQDIFGKTPADIAADAGHEDIAEVLQKAA
notes: CD70-CD123-CD33-CD3-HSA
In general, Kd refers to the constant that tells how readily two partners part at equilibrium. A lower Kd goes with tighter binding. Consider B3, for which the Kd in assay [2] was 9.6 nM; in assay [3], 13 nM; in assay [4], 0.38 nM; with human serum albumin, 7.5 nM.

B4: DARPin® protein #60 (designed binder)
chain: DLGKKLLEAARAGQDDEVRELLKAGADVNAKDYFSHTPLHLAARNGHLKIVEVLLKAGADVNAKDFAGKTPLHLAAADGHLEIVEVLLKAGADVNAQDIFGKTPADIAADAGHEDIAEVLQKAAGSPTPTPTTPTPTPTTPTPTPTGSDLGKKLLEAARAGQDDEVRELLKAGADVNAKDYFSHTPLHLAARNGHLKIVEVLLKAGADVNAKDFAGKTPLHLAAADGHLEIVEVLLKAGADVNAQDIFGKTPADIAADAGHEDIAEVLQKAAGSPTPTPTTPTPTPTTPTPTPTGSDLGIKLLTAAYDGQLDEVRILLKAGADVNAKDLRGQTPLHYAAGLGHLEIVEVLLKAGADVNAKDLHGWTPLHLAAWSGHLEIVEVLLKAGADVNAQDVEGVTPADLAAVQGHQDIAEVLQKAAGSPTPTPTTPTPTPTTPTPTPTGSDLGKKLLQAARAGQLDEVRELLKAGADVNAKDQYGRTPLHLAAIKGHLEIVEVLLKAGADVNAKDSLGYTPLHLAAVEGPLEIVEVLLKAGADVNAKDAYGQTPLHIAAAWGHLEIVEVLLKAVADVNAQDKSGKTPADLAARAGHQDIAEVLQKAAGSPTPTPTTPTPTPTTPTPTPTGSDLGVKLLLAAERGQLDEVRILLKAGADVNAKDIAEGYTPLHIAAYQGHLEIVEVLLKAGADVNAKDRYGKTPLHLAAIGGHLEIVEVLLKAGADVNAQDNKGSTPADLAADYGHQDIAEVLQKAAGSPTGSDLGQKLLEAAWAGQDDEVRELLKAGADVNAKNSRGWTPLHTAAQTGHLEIFEVLLKAGADVNAKNDKRVTPLHLAAALGHLEIVEVLLKAGADVNARDSWGTTPADLAAKYGHQDIAEVLQKAA
notes: HSA-HSA-CD70-CD123-CD33-CD3
In assay [1], B4 had a half-maximal effective concentration (EC50) of 0.16 nM.
